Reference: publication PMC10763354 (2024)

Target: Desulfovibrio vulgaris flagellin (Desulfovibrio vulgaris)
Assay: MST

B1: leucine-rich repeat containing 19 (LRRC19) protein (receptor)
chain: SKREVQCNFTEKNYTLIPADIKKDVTILDLSYNQITLNGTDTRVLQTYFLLTELYLIENKVTILHNNGFGNLSSLEILNICRNSIYVIQQGAFLGLNKLKQLYLCQNKIEQLNADVFVPLRSLKLLNLQGNLISYLDVPPLFHLELITLYGNLWNCSCSLFNLQNWLNTSNVTLENENITMCSYPNSLQSYNIKTVPHKAECHSKFPSSVTEDLYIHFQPISNSIFNSSSNNLTRNSEHEPLGKSW
modifications: NT647 fluorescence dye (in the MST experiments only)
- Kd: 1050 nM
